In data set [1] the target is T1, GST-YoeB fusion protein (Escherichia coli, UniProt P69348).
T1 construct: made in house; host or cells: E. coli BL21(DE3) pLysS
T1 sequence (P69348 1-84): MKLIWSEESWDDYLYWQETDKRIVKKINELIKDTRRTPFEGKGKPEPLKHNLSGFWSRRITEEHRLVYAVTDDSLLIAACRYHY
The data set is described as follows: Peptide array analysis of YefM tridecamer peptides probed with GST-YoeB. In kind it is binding, E. coli. As to the method:
Peptide array analysis: Tridecamer peptides corresponding to consecutive overlapping sequences of the YefM polypeptide were arrayed on a cellulose membrane matrix and covalently bound to a Whatman 50 cellulose support (Whatman). Approximately 50 μg aliquots of soluble GST-YoeB fusion were examined for their selective peptide binding ability, on the basis of YefM-YoeB putative interaction.
For low stringency binding the cellulose membrane was briefly washed in 100% ethanol, washed three times with Tris-buffered saline (TBS; 50 mM Tris-HCl pH 7.5, 150 mM NaCl), then blocked for 4 hours using 5% (w/v) non-fat milk in TBS. The membrane was then washed three times in TBS+0.1% (v/v) tween 20 (TBS-T) and incubated with 10 ml GST-YoeB solution at 4° C. and slow shaking for 14 hours.
For high stringency binding the washing steps were extensive and multiple and the blocking solution washing step was reduced to a single brief wash.
Following incubation, the membrane was washed once in TBS-T then supplemented with 10 ml suspension comprising TBS, mouse anti-GST antibody and horseradish peroxidase conjugated goat anti-mouse antibody in the appropriate titers. Following 1 hour incubation at room temperature the membrane was briefly washed with TBS-T and TBS. Bound GST-YoeB proteins were detected through an enhanced chemiluminescence reaction following an exposure to a sensitive film.

Data set [2] has as its system E. coli TOP10. In words: Growth rate analysis of bacteria overexpressing YefM, YoeB or both. Conditions: 0.2% L-arabinose induction compared with 0.2% glucose control, LB-Amp, 37° C.
Procedure: (§1) The generated constructs were introduced to E. coli strain TOP10.
Growth rate analysis: E. coli TOP10 bacteria transformed with pBAD-yefM, pBAD-yoeB, and pBAD-yefMyoeB were cultured in LB broth supplemented with 100 μg/ml ampicillin (LB-Amp) and incubated at 37° C. overnight. Following incubation, cultures were diluted in fresh LB-Amp and their optical density was adjusted to approximately 0.01 (A600). Each culture was then divided into two equal volumes. One volume was supplemented with 0.2% L-arabinose to induce expression of the target gene and the second volume was supplemented with 0.2% D-glucose to suppress expression. All cultures were incubated at 37° C. and 200 rpm for up to 9 hours. Cell density was estimated periodically by optical absorbance at 600 nm. The effect of target gene induction on bacterial growth during the logarithmic growth phase was determined as described above with the exception that cultures were divided and supplemented with 0.2% L-arabinose, or 0.2% D-glucose at the time they had reached optical density of approximately 0.45 (A600).
Data set [3] concerns E. coli TOP10. In words: Colony formation analysis of bacteria overexpressing YefM, YoeB or both. The conditions noted are these: L-arabinose 0.0005-0.2% on LB-Amp agar, 37° C., 20 hours.
Procedure: as §1
Colony formation analysis: E. coli TOP10 bacteria harboring pBAD-yefM, pBAD-yoeB, or pBAD-yefMyoeB, were cultured in LB-Amp and incubated at 37° C. overnight Following incubation the cultures were diluted to an A600 of 0.01 in a fresh LB-Amp and incubated at 37° C. until an absorbance of 0.5 at A600 was reached. The cultures were then diluted in ten-fold dilutions steps and applied as 5 μl droplets on LB-Amp agar plates containing L-arabinose at a concentration gradient of 0.2%, 0.1%, 0.05%, 0.02%, 0.005% and 0.0005%. An LB-Amp agar plate containing 0.2% glucose was used as a negative control. All plates were incubated at 37° C. for at least 20 hours.
The conditions of data set [4]: boiled 10 minutes, supernatant (FIG. 4D).
A short description of data set [5]: Thermal denaturation monitored by CD ellipticity at 222 nm. In kind it is physicochemical. Conditions: PBS pH 7.3. As to the method:
Circular Dichroism (CD): CD spectra were obtained by using an AVIV 202 spectrapolarimeter equipped with temperature-controlled sample holder and a 5 mm path length cuvette. Mean residual ellipticity, [θ], was calculated as, [θ]=[100×θ×m]/[c×L]
The identity of YefM and YoeB-His was verified using protein spots isolation from Coomassie blue stained gels and was accomplished by mass spectrometry, according to established protocols (Bandow, J. E., Becher, D., Buttner, K, Hochgrafe, F., Freiberg, C., Brotz, H. and Hecker, M. (2003) Proteomics. 3, 299-306). Briefly, protein spots were excised from stained gels and the gel pieces were treated trypsin solution (Pomega) for 16 h at 37° C. Peptides were extracted from gel onto a sample plate for MALDI-MS. Obtained peptides masses were determined in the positive ion reflector mode in a Voyager-DE STR mass spectrometer (Applied Biosystems). […] To determine the concentrations of YoeB-His and YefM polypeptides, tyrosine and tryptophan absorbance measurements in 0.1 M KOH were used. YefM concentration was calculated using the extinction coefficient of 2381 M^−1 cm^−1 at 293.2 nm for single tyrosine (4 tyr). YoeB-His concentration was calculated using extinction coefficient at 280 nm of 1507 M^−1 cm^−1 for single tyrosine (6 tyr) and 5377 M^−1 cm^−1 for single tryptophan (4 trp). […]

For `CC[C@H](C)[C@H](NC(=O)[C@@H](NC(=O)[C@@H](N)CCCNC(=N)N)[C@@H](C)O)C(=O)N[C@@H](CO)C(=O)N[C@@H](Cc1ccc(O)cc1)C(=O)N[C@@H](CO)C(=O)N[C@@H](CCC(=O)O)C(=O)N[C@@H](C)C(=O)N[C@@H](CCCNC(=N)N)C(=O)N[C@@H](CCC(N)=O)C(=O)N[C@@H](CC(N)=O)C(=O)N[C@@H](CC(C)C)C(=O)N[C@@H](CO)C(=O)O` [YefM11-23], the “binding of YoeB-GST to arrayed tridecamer peptide” value is recorded as “best binding” in data set [1] (high stringency, single amino-acid shift between peptides (FIG. 6B)) and “positively identified” in data set [1] (low stringency, two amino-acids shift between peptides (FIG. 6A)).

B1: YefM: E. coli antitoxin polypeptide, 92 amino acids, SEQ ID NO: 76, natively unfolded (protein, listed as Escherichia coli)
chain: MNCTKEEIDMRTISYSEARQNLSATMMKAVEDHAPILITRQNGEACVLMSLEEYNSLEETAYLLRSPANARRLMDSIDSLKSGKGTEKDIIE
As to B1, the “growth of bacteria overexpressing the polypeptide” value (shortened to “growth”) in data set [2] was “substantially reduced”. Further, the “bacterial colony formation on overexpression” value (from here on “bacterial colony formation”) in data set [3] is listed as “inhibited”. The solubility during boiling entry in data set [4] was “extraordinary solubility”.

B2: YoeB: E. coli toxin polypeptide, SEQ ID NO: 77 (protein, listed as Escherichia coli)
chain: T1 sequence (P69348 1-84)
As for B2, the “growth” value in data set [2] is recorded as “substantially reduced”. Also, in data set [3], the “bacterial colony formation” value was “inhibited”.

B3: YefM and YoeB: toxin-antitoxin pair co-overexpressed in E. coli TOP10 from pBAD-yefMyoeB (protein, UniProt P69346 1-83; P69348 1-84, looked up)
Antitoxin YefM: MRTISYSEARQNLSATMMKAVEDHAPILITRQNGEACVLMSLEEYNSLEETAYLLRSPANARRLMDSIDSLKSGKGTEKDIIE
Toxin YoeB: T1 sequence (P69348 1-84)
Consider B3, for which, in data set [2], the “growth” value is listed as “remained normal”. Also, in data set [3], the “bacterial colony formation” value is “unaffected”.

B4: YoeB-His: YoeB toxin expressed in fusion to myc-epitope and his-tag (protein)
chain: T1 sequence (P69348 1-84)
modifications: left off: small tags and cut ends
On to B4, for which the “polypeptide melting point (TM)” value in data set [5] was “approximately 60 °C”.

The values are drawn from patent US7625707B2, “Antibacterial agents and methods of identifying and utilizing same” (Ramot At Tel Aviv University Ltd., priority 2003, dated 2009).
